Usually stoichiometry N stands for the number of molecules, sites or subunits per partner or assembly.

Data on five molecules can be found in PMC11472163, “Crystal structure and nucleic acid binding mode of CPV NSP9: implications for viroplasm in Reovirales”.

The target of data set [1] is BmCPV1 NSP9^ΔC (1–286 amino acid residues, lacking residues 287–320), expressed in E. coli (Bombyx mori cypovirus 1 (BmCPV1)). As to the kind of experiment: AUC.
Data set [2] has the same target. As to the kind of experiment: SEC; […]; 10 mM HEPES pH 7.5, 100 mM NaCl; […]. (In general: Size exclusion chromatography separates by hydrodynamic size, large species first.)
In data set [3] the target is T1, NSP9ΔC (Bombyx mori cypovirus 1 (BmCPV1), UniProt O72505 1-286). As to the kind of experiment: EMSA; no significant difference from DNA; […]; SEC: 10 mM HEPES pH 7.5, 100 mM NaCl. To be noted: protein: recombinant; chain copies: 2; label: 5' 6-FAM.
The target of data set [4] is T1, NSP9ΔC. The data set can be described thus: EMSA; 1:1 NSP9ΔC dimer:ssDNA; […]; SEC: 10 mM HEPES pH 7.5, 100 mM NaCl. Particulars: protein: recombinant; chain copies: 2; label: 5' 6-FAM (EMSA).
In data set [5] the target is T1, NSP9ΔC. The data set can be described thus: EMSA; two sequential bands; 2:1 dimer:NA; […]; SEC: 10 mM HEPES pH 7.5, 100 mM NaCl. To be noted: protein: recombinant; chain copies: 2; label: 5' 6-FAM.

As to “BmCPV1 NSP9^ΔC (1–286 amino acid residues, lacking residues 287–320), expressed in E. coli (domain or fragment)”, the stoichiometry N in data set [1] and in data set [2] was 2 throughout.

With AGUAAGCUGUUAGCC (ssRNA) [15 nt ssRNA], the binding result in data set [3] is reported as “binds”.

AGTAAGCTGTTAGCC (ssDNA) [15 nt ssDNA]: the binding result in data set [4] is on record as “binds”.

As for AGUAAAUCCCAGGCGCUCGGGUCGUUAGCC (ssRNA) [30 nt ssRNA], the binding result in data set [5] is “binds”.

In the case of AGTAAATCCCAGGCGCTCGGGTCGTTAGCC (ssDNA) [30 nt ssDNA], in data set [5], the binding result is “binds”.
